{
  "source": "paper PMC4072699",
  "about": "“A Remorin Gene SiREM6, the Target Gene of SiARDP, from Foxtail Millet (Setaria italica) Promotes High Salt Tolerance in Transgenic Arabidopsis”",
  "binders": {"B1": {"name": "competitor 2 (mutant DRE1, ACCGAC to AAAAAC) (dsDNA)", "DNA 1": "GCGATGGTCCTCAAAAACGACGCCGCCCGC", "DNA 2": "GCGGGCGGCGTCGTTTTTGAGGACCATCGC"}, "B2": {"name": "probe P3 (ABRE) (dsDNA)", "DNA 1": "GCCGCGCGGGTACGTGCGAGCCCCGCGGTC", "DNA 2": "GACCGCGGGGCTCGCACGTACCCGCGCGGC"}, "B3": {"name": "competitor 3 (DRE2) (dsDNA)", "DNA 1": "ATGGGTTCCTTGCCGACTCTTCTTTTAACC", "DNA 2": "GGTTAAAAGAAGAGTCGGCAAGGAACCCAT"}, "B4": {"name": "probe P2 (DRE2) (dsDNA)", "DNA 1": "ATGGGTTCCTTGCCGACTCTTCTTTTAACC", "DNA 2": "GGTTAAAAGAAGAGTCGGCAAGGAACCCAT"}, "B5": {"name": "competitor 4 (mutant DRE2, GCCGAC to GAAAAA) (dsDNA)", "DNA 1": "ATGGGTTCCTTGAAAAATCTTCTTTTAACC", "DNA 2": "GGTTAAAAGAAGATTTTTCAAGGAACCCAT"}, "B6": {"name": "probe P1 (DRE1) (dsDNA)", "DNA 1": "GCGATGGTCCTCACCGACGACGCCGCCCGC", "DNA 2": "GCGGGCGGCGTCGTCGGTGAGGACCATCGC"}, "B7": {"name": "competitor 1 (DRE1) (dsDNA)", "DNA 1": "GCGATGGTCCTCACCGACGACGCCGCCCGC", "DNA 2": "GCGGGCGGCGTCGTCGGTGAGGACCATCGC"}},
  "key": {"[1]": {"molecular_target": "T1, SiARDP (Setaria italica, UniProt K3Z7V1 1-332)", "T1 sequence (K3Z7V1 entry or part of it)": "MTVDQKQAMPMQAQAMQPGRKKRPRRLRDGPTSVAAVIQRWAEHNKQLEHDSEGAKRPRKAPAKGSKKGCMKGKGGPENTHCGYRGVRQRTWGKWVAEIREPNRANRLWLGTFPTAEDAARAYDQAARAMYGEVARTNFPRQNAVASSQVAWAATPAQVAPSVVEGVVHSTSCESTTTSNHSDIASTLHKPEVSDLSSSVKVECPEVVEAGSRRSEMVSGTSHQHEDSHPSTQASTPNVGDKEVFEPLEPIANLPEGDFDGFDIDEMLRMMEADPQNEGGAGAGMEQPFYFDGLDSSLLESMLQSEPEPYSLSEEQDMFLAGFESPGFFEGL", "experiment": "competition; versus labeled P1; signal not obviously reduced; LightShift Chemiluminescent EMSA Kit (Thermo), manufacturer's protocol; buffer, salt, pH and temperature not stated", "settings": "protein: recombinant"}, "[2]": {"molecular_target": "T1, SiARDP", "experiment": "EMSA; LightShift Chemiluminescent EMSA Kit (Thermo), manufacturer's protocol; buffer, salt, pH and temperature not stated", "settings": "protein: recombinant; label: biotin"}, "[3]": {"molecular_target": "T2, SiAREB1 (Setaria italica, UniProt K3YTM2 1-357)", "T2 sequence": "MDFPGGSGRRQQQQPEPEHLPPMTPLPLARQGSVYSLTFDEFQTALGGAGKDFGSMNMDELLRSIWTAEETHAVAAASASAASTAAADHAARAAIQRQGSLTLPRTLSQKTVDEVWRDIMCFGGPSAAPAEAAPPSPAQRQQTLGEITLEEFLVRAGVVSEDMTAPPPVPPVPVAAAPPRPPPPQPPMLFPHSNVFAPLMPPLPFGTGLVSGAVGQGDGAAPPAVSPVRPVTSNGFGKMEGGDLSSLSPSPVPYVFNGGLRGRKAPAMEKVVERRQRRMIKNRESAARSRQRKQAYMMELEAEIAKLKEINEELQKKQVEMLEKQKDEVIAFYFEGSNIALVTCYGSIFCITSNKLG", "experiment": "EMSA; LightShift Chemiluminescent EMSA Kit (Thermo), manufacturer's protocol; buffer, salt, pH and temperature not stated", "settings": "protein: recombinant; chain copies: 2; label: biotin"}, "[4]": {"molecular_target": "T1, SiARDP", "experiment": "competition; versus labeled P2; LightShift Chemiluminescent EMSA Kit (Thermo), manufacturer's protocol; buffer, salt, pH and temperature not stated", "settings": "protein: recombinant"}, "[5]": {"molecular_target": "T1, SiARDP", "experiment": "competition; versus labeled P2; signal not obviously reduced; LightShift Chemiluminescent EMSA Kit (Thermo), manufacturer's protocol; buffer, salt, pH and temperature not stated", "settings": "protein: recombinant"}, "[6]": {"molecular_target": "T1, SiARDP", "experiment": "competition; versus labeled P1; LightShift Chemiluminescent EMSA Kit (Thermo), manufacturer's protocol; buffer, salt, pH and temperature not stated", "settings": "protein: recombinant"}},
  "data": [
    {"binder": "B1", "values": [
      {"measurement": "binding result", "setting": "[1]", "value": "no binding"}
    ]},
    {"binder": "B2", "values": [
      {"measurement": "binding result", "setting": "[2]", "value": "no binding"},
      {"measurement": "binding result", "setting": "[3]", "value": "no binding"}
    ]},
    {"binder": "B3", "values": [
      {"measurement": "binding result", "setting": "[4]", "value": "binds"}
    ]},
    {"binder": "B4", "values": [
      {"measurement": "binding result", "setting": "[3]", "value": "no binding"}
    ]},
    {"binder": "B5", "values": [
      {"measurement": "binding result", "setting": "[5]", "value": "no binding"}
    ]},
    {"binder": "B6", "values": [
      {"measurement": "binding result", "setting": "[2]", "value": "binds"},
      {"measurement": "binding result", "setting": "[3]", "value": "no binding"}
    ]},
    {"binder": "B7", "values": [
      {"measurement": "binding result", "setting": "[6]", "value": "binds"}
    ]}
  ]
}
